Earlier results, collected in publication PMC11316025.
pKd: −log10 of the molar value.

Target: KRAS (Homo sapiens) (UniProt P01116)

Sequence of RASSF5 (Q8WWW0 whole entry): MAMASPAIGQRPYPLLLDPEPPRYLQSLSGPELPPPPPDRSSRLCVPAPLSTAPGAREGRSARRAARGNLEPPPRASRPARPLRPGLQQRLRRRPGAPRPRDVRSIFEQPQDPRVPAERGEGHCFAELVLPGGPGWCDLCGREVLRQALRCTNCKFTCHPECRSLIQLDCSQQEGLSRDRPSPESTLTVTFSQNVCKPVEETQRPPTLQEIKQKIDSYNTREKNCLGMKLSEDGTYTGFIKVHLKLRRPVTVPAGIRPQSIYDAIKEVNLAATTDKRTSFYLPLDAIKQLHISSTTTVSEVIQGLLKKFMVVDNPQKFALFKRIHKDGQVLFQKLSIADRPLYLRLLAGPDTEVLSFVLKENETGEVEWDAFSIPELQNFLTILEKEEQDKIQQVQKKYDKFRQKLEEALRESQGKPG

Substance: RASSF5 (from UniProt Q8WWW0)
- pKd: 5.77
